The target of one assay is T1, HPV16 VLP protein (human papillomavirus type 16, UniProt P03101 1-474).
T1 construct: Complete VLP protein; no limits of the construct printed, whole entry named; also called HPV-16L1
T1 sequence: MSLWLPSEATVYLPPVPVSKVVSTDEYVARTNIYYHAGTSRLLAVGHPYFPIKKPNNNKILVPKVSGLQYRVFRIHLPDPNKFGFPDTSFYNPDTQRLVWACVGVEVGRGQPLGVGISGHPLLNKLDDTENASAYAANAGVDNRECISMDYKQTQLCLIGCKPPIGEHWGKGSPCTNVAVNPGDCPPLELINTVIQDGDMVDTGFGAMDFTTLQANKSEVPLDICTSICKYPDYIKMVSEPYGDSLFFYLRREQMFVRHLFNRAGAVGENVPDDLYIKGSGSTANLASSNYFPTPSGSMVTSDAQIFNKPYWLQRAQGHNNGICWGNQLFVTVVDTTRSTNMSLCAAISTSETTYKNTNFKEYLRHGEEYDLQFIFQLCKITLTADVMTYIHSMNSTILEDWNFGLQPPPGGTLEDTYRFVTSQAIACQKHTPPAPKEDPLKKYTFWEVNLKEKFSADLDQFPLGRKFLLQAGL
Nature of the assay: double-antibody sandwich ELISA on the mixture of 13 HPV VLPs.

The next assay deals with T2, HPV33 VLP protein (human papillomavirus type 33, UniProt P06416 1-499).
T2 construct: Complete VLP protein; no limits of the construct printed, whole entry named; also called HPV33L1
T2 sequence: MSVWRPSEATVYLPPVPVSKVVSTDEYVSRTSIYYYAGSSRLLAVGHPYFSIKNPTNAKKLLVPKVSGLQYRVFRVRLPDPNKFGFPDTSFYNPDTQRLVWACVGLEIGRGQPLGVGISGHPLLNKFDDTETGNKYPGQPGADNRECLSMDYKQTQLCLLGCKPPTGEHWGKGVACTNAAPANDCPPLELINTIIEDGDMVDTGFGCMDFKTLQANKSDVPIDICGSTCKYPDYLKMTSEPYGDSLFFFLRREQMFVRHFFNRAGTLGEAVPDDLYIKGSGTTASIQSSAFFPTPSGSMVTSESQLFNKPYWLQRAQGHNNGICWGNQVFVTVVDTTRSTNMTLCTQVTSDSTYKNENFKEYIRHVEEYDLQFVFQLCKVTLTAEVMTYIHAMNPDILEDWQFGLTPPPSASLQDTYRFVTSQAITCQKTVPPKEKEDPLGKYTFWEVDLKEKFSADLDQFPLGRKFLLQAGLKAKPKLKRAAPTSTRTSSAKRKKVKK
The description is as above.

In another assay the target is T3, HPV51 VLP protein (human papillomavirus type 51, UniProt P26536 1-474).
T3 construct: Complete VLP protein; no limits of the construct printed, whole entry named; also called HPV51L1
T3 sequence: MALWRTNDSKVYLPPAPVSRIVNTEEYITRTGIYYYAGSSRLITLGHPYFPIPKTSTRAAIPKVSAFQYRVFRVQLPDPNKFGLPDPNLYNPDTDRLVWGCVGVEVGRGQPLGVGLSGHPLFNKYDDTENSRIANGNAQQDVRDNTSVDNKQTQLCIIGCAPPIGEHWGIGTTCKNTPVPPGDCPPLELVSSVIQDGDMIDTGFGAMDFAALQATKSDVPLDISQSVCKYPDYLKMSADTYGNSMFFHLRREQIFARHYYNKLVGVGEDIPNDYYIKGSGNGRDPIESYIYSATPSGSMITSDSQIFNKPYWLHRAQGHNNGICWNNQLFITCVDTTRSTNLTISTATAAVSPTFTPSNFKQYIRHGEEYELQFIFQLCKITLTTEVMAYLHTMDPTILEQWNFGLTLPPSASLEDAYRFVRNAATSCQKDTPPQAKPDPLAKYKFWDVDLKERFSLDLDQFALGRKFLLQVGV
The description is as above.

The target of a further assay is T4, HPV11 VLP protein (human papillomavirus type 11; human …, UniProt P04012 1-470; P06416 474-499).
T4 construct: range 1-470;range 474-499; Complete VLP protein used as coating protein
T4 sequence: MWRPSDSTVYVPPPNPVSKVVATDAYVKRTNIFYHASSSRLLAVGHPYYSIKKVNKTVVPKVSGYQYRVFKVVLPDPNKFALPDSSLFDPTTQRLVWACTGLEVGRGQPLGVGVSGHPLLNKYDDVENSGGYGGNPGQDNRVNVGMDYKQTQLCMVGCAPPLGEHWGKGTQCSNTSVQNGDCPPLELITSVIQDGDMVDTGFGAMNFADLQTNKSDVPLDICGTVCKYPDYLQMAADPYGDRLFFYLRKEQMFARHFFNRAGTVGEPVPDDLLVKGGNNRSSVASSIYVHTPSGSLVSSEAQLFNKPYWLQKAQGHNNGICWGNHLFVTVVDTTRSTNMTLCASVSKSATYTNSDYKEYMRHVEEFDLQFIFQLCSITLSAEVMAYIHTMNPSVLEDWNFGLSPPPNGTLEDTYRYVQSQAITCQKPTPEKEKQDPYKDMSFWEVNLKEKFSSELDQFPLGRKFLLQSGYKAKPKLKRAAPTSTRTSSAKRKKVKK
Kind of assay: indirect ELISA on coated VLP. (In an ELISA, binding on a coated surface is turned into a signal by an enzyme label.)

The next assay has as its target T5, HPV52 VLP protein (human papillomavirus type 52, UniProt Q05138 27-504).
T5 construct: Complete VLP protein; no limits of the construct printed, whole entry named; also called P52SHELL
T5 sequence: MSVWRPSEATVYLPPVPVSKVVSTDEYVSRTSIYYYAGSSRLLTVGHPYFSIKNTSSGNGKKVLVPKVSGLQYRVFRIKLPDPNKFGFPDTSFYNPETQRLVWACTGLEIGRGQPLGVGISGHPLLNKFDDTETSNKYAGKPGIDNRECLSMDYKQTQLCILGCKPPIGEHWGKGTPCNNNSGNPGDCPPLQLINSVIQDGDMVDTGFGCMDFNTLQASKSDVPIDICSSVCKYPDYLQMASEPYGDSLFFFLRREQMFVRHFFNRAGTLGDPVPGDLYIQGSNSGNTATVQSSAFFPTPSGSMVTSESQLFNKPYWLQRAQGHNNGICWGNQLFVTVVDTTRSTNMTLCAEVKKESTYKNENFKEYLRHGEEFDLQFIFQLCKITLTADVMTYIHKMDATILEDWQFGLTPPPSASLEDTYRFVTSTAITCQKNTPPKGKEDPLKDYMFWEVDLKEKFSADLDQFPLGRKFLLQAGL
Nature of the assay: indirect ELISA on coated VLP.

B1: monoclonal antibody HPV6-R003 (antibody, V domains shown)
VH: QQQLEESGGGLVKPGGTLTLTCKASGIDLSNYYMCWVRQAPGKGLEWIGCIYTGSGRTYYASWAKGRFTISKASSTTVTLQMTSLTAADTATYFCARDYLGWRASNIWGPGTLVTVSS
VL: ELVMTQTPSSVSAAVGGTVTINCQASQSVYSNNLVWYQQKPGQPPKLLIYGASTLASGVPSRFKGSGSGTQFTLTISDVVCDDAATYYCGGYVSDSTDGTAFGGGTEVVVKG
notes: here built from variable plus constant region so that the signal peptides are left out; In the sandwich ELISA the same antibody is used as coating antibody and, labelled with horseradish peroxidase, as detection antibody; also called anti-HPV6 L1 protein antibody
For B1, the binding result with HPV16 VLP protein was “no binding (tested: mixture 50 ng/mL, each subtype 1/13)”; with HPV33 VLP protein, “no binding (tested: mixture 50 ng/mL, each subtype 1/13)”; in the assay with HPV51 VLP protein, “no binding (tested: mixture 50 ng/mL, each subtype 1/13)”; with HPV11 VLP protein, “no binding (tested: antibody 10 ng/mL; coating 2 µg/mL)”; with HPV52 VLP protein, “no binding (tested: antibody 10 ng/mL; coating 2 µg/mL)”.

For the origin of these results see patent US20240158474A1 (SINO BIOLOGICAL, published 2024).
